Laboratory results from paper PMC5720831.

Molecular target: biotinylated Mtb DnaB (Mycobacterium tuberculosis)
Assay: BLI; Octet RED96; 200 nM biotinylated DnaB loaded on streptavidin biosensors, DciAMtb in solution at varying concentrations, 300 s association and 300 s dissociation; 150 mM NaCl, 0.02% Tween-20, 0.1% BSA, 10 mM NaPO4 pH 8; double reference subtracted; global fit, 1:1 kinetic binding model

DciAMtb, purified recombinant, untagged (from UniProt P9WFL1 1-187) (natural protein)
Kd: 211 nM
